Source: paper PMC2119758

Target: rabbit muscle F-actin (polymerized rabbit muscle actin) (rabbit) (UniProt P68135)
Experiment: co-sedimentation

“GST.p80 fusion protein (cortactin p80 residues 55-526) (domain or fragment)” was tested, and the stoichiometry N (actin monomers per GST.p80) was 14.

Work on “bacterially expressed cortactin (p80 residues 55-526) after removal of GST with thrombin (domain or fragment)” yielded a fold increase of affinity against GST.p80 of 2 fold.
